{
  "source": "paper PMC6511404",
  "key": {"[1]": {"target": "E. coli enolase, detagged (His tag removed by thrombin) (E. coli)", "test": "crystal structure"}, "[2]": {"target": "E. coli enolase, detagged (His tag removed by thrombin) (E. coli)", "test": "crystal structure", "remark": "listed apart in the source"}},
  "note": "Where two headings read alike, the source gives them in different places.",
  "data": [
    {"substance": "E. coli enolase, detagged (His tag removed by thrombin) (enzyme)", "values": [
      {"measurement": "stoichiometry N", "setting": "[1]", "value": 6},
      {"measurement": "stoichiometry N", "setting": "[2]", "value": 2}
    ]}
  ]
}
